Assay: soluble on expression in E. coli; label from the status in PepcDB or PDB records

Row | Sequence | soluble on expression in E. coli
1 | MADKSAYMSAGGYGSGYMGANASSSGYAREDYAQGGAGGSGNQNQGGSGGNTNPGGQVFKARTDQSCYLGP | not soluble
2 | MADQHPTAQRPIDAHGIIGDMRSAALVDDQGSIDFFCWPEFDSPSIFCSLLDSPAAGIFELAPVLADARRQQIYLPDSNVLQTRWLGTEAVVEVTDLLTIDDDPEQLPLLIRRVRVVSGQATLRLHCAPRLDYLEHHHHHH | not soluble
3 | MADRPQLSIIIPVFNEAKILQKSPTENTRQYLGQFTEDQRIEILIIDGGSQDSTVELCQTYADSLPLHVFISPQTGRANQMNYGASLSRSEWLLFLHLDSILPHDFFTQIAEILTNSSYIAGAFGLTIDLPGRPYRWLEKLILWRSIYAQKPYGDQGLFIQRQDFQQLGGFADLPIMEDYQFMQKLGKQRGKVAIAGGKVITSGRRWQKLGLLRTTAINQLVVAGYHLGVSPQTLVHWYRGAKPNRGNRPNSDGTSCLEHHHHHH | soluble
4 | MADRRNLFFFYGDDKATLVEKMKPIYRILEENGFTILDHPKNANAIVSVGDDATFLQAVRKTGFREDCLYAGISTKDEISFYCDFHIDHVDTALQEITKNEIEVRKYPTIQVDVDGSTSFHCLNEFSLRSSIIKTFVVDVHVDDLYFETFRGDGLVVSTPTGSTAYNKSLHGAVVDPLIPCFQVSELASLNNNTYRTLGSPFILNHERTLTLKLRPDGNDYPVIGMDNEALSIKQVEKAVVRLSDKQIKTVKLKNNSFWEKVQRTFLLEHHHHHH | soluble
5 | MADSTPILFDRRLLAARLHRAAALGPAPFLLDRVAEEMDERLHAVLRDFTEVADLWTPGGLKLQRFPKLAHLAVDPSGSEALPFAPGSLDLVVSALALQFANDLPGVLAQLRRALKPDGLLLAALTGGETLTELRQAFASAEAEIEGGVSPRVAPAADLRDLGALLQRAGFALPVTDVDRVVVRYDHAFALMQDLRRMGATNVLIERRRTPLRRATLTRMAQIYADRFSDPDGRIRATFEIVWLSGWSPHESQQQPLKPGSAKVSLEEAVRGKRLEHHHHHH | not soluble
6 | MADWVTGKVTKVQNWTDALFSLTVHAPVLPFTAGQFTKLGLEIDGERVQRAYSYVNSPDNPDLEFYLVTVPDGKLSPRLAALKPGDEVQVVSEAAGFFVLDEVPHCETLWMLATGTAIGPYLSILRLGKDLDRFKNLVLVHAARYAADLSYLPLMQELEKRYEGKLRIQTVVSRETAAGSLTGRIPALIESGELESTIGLPMNKETSHVMLCGNPQMVRDTQQLLKETRQMTKHLRRRPGHMTAEHYW | soluble
7 | MADYYGLFTSDTRSVSDGESDGERRLRRSRRKRGGGRFRPYSPDYSDDEKTKPTKKNQKRPDKQDRFGMAPPNSTQFLLEDREARADAEFENEQKFEAAERRRVRTMSGSYEHMRPAYWCTIEPATTTADFGSDDNNDLDSTSGESEADREMEREFETDYLEVKRERIQSMTRSQLAAELLERDQDTQVLTRELGSKETENRHLRSLLSAHGISPDEPVTSTTAIVVGQSKSPVVAN | not soluble
8 | MAEDFSVVVLASDLGIDARPFLTRSDDVDEQENWHDCPQYLGDEDFSDLDLLQFFTLQGLDRSGNRIFRIVGKYFPARVVSAERLKKYISQKISNQCPEGPLCLVYMHSTVQKDDNSPGITILRWIYEDLPSDIKDRLQLVYFIHPGLRSRLVIATLGRLLLSGGLYWKIKYVSRLQYLWEDIKKGEVEIPDFVKNHDNVLEHRPLTDYGIEPDPFQLSEVQSSSFSLNRYENRWVS | soluble
9 | MAEDIFRVATVEDAPEFLELLSSAFKSVKELGIDWPSTNADLAMVTENIVNSSAFVLERNGKLISTITVRFPWESSSPPSKYPFVWWFATAPELAGQGIGDKLLTYVEERVLRDTLKAPALTLGTSARKHPWLLDMYLRRGYEVYFEHEEDGDVGVMMRKILIPEKFDATLLGIPSWT | not soluble
10 | MAEELVLERCDLELETNGRDHHTADLCREKLVVRRGQPFWLTLHFEGRNYQASVDSLTFSVVTGPAPSQEAGTKARFPLRDAVEEGDWTATVVDQQDCTLSLQLTTPANAPIGLYRLSLEASTGYQGSSFVLGHFILLFNAWCPADAVYLDSEEERQEYVLTQQGFIYQGSAKFIKNIPWNFGQFQDGILDICLILLDVNPKFLKNAGRDCSRRSSPVYVGRVGSGMVNCNDDQGVLLGRWDNNYGDGVSPMSWIGSVDILRRWKNHGCQRVKYGQCWVFAAVACTVLRCLGIPTRVVTNYNSAHDQNSNLLIEYFRNEFGEIQGDKSEMIWNFHCWVESWMTRPDLQPGYEGWQALDPTPQEKSEGTYCCGPVPVRAIKEGDLSTKYDAPFVFAEVNADVVDWIQQDDGSVHKSINRSLIVGLKISTKSVGRDEREDITHTYKYPEGSSEEREAFTRANHLNKLAEKEETGMAMRIRVGQSMNMGSDFDVFAHITNNTAEEYVCRLLLCARTVSYNGILGPECGTKYLLNLTLEPFSEKSVPLCILYEKYRDCLTESNLIKVRALLVEPVINSYLLAERDLYLENPEIKIRILGEPKQKRKLVAEVSLQNPLPVALEGCTFTVEGAGLTEEQKTVEIPDPVEAGEEVKVRMDLVPLHMGLHKLVVNFESDKLKAVKGFRNVIIGPA | soluble
11 | MAEEQQNSDQSNGGNVIPTPEEVATFLHKTVEEGGWEKCWEEEITPWDQGRATPLIVHLVDTSSLPLGRALVPGCGGGHDVVAMASPERFVVGLDISESALAKANETYGSSPKAEYFSFVKEDVFTWRPTELFDLIFDYVFFCAIEPEMRPAWAKSMYELLKPDGELITLMYPITDHVGGPPYKVDVSTFEEVLVPIGFKAVSVEENPHAIPTRKGKEKLGRWKKIN | not soluble
12 | MAEIEKTVLVGYSASQMFRLVDTVENYPDFLPWCSGASMKLMEDNETAQATVHIDYHHIKHSFTTKNTRHPPELIKMELVEGPFEKLNGYWRFIPLSENACKIEFQLHYTFSHKLLEKLVGPVFYVIANNFVEAFVEQAEKIYGPSILEHHHHHH | soluble
13 | MAEILERSGYLVKVRVEVPADRVKASYEALLKDLASRVRVPGFRPGKAPLKVVEARLGREALLQDLKERLVEETYPEAVRELGLSPVAARVVEQDLSEGEGFRYVAEVENYPEVRLPDWRSFALEVSPPEVTEEMVEKALEELRQRYAELVPVEREAQEKDHLFVRTEEGAEFPIDLAKALPHVREALLGKKAGDVVMVPVLNDKGEKVREVRTEVLEVKTLKLPELDEEFAKTLEAESLEDLKNRVRESLKRQAERAYEEARERAFLEKLAEGLEVEIPPSMLRAEERHLLEHLAEDLYRQGISLEAYLEALKEKGELEKFQEDLRKEAEKRVRIALAREKLAEELNPEVSEEEWQAYLQAAARAYGVAVQDLRRQFGEEGLARLKERLRQDKAVQEALKALG | soluble
14 | MAEITFKGGPVTLVGQEVKVGDQAPDFTVLTNSLEEKSLADMKGKVTIISVIPSIDTGVCDAQTRRFNEEAAKLGDVNVYTISADLPFAQARWCGANGIDKVETLSDHRDMSFGEAFGVYIKELRLLARSVFVLDENGKVVYAEYVSEATNHPNYEKPIEAAKALVK | soluble
15 | MAEKIKINNNVFIYPMPVTLLGANVKGKANLMALGWVSRVNANPPMLGVGVNKSHYTPEGIAENGSFSVNFPYSGMVKKTDYCGLVSGEKVDKSGLFEVFYGELKTAPMIKECTLNLECRVVETLEFPTNYFFVGEIIAAYSEEQYLIQGKPDIKKMDPLLLTMPDNSYWTVGDYAGAALKTGKSLMEKRHHHHHH | soluble
16 | MAEKKLEENPYDLDAWSILIREAQNQPIDKARKTYERLVAQFPSSGRFWKLYIEAEIKAKNYDKVEKLFQRCLMKVLHIDLWKCYLSYVRETKGKLPSYKEKMAQAYDFALDKIGMEIMSYQIWVDYINFLKGVEAVGSYAENQRITAVRRVYQRGCVNPMINIEQLWRDYNKYEEGINIHLAKKMIEDRSRDYMNARRVAKEYETVMKGLDRNAPSVPPQNTPQEAQQVDMWKKYIQWEKSNPLRTEDQTLITKRVMFAYEQCLLVLGHHPDIWYEAAQYLEQSSKLLAEKGDMNNAKLFSDEAANIYERAISTLLKKNMLLYFAYADYEESRMKYEKVHSIYNRLLAIEDIDPTLVYIQYMKFARRAEGIKSGRMIFKKAREDARTRHHVYVTAALMEYYCSKDKSVAFKIFELGLKKYGDIPEYVLAYIDYLSHLNEDNNTRVLFERVLTSGSLPPEKSGEIWARFLAFESNIGDLASILKVEKRRFTAFREEYEGKETALLVDRYKFMDLYPCSASELKALGYKDV | soluble
17 | MAELKLEHIKKTYDNNNTVVKDFNLHITDKEFIVFVGPSGCGKSTTLRMVAGLESITSGDFYIDGERMNDVEPKNRDIAMVFQNYALYPHMTVFENMAFGLKLRKVNKKEIEQKVNEAAEILGLTEYLGRKPKALSGGQRQRVALGRAIVRDAKVFLMDEPLSNLDAKLRVQMRTEILKLHKRLNTTTIYVTHDQTEALTMASRIVVLKDGDIMQVGTPREIYDAPNCIFVAQFIGSPAMNMLNATVEMDGLKVGTHHFKLHNKKFEKLKAAGYLDKEIILGIRAEDIHEEPIFIQTSPETQFESEVVVSELLGSEIMVHSTFQGMELISKLDSRTQVMANDKITLAFDMNKCHFFDEKTGNRIV | not soluble
18 | MAELPKTLEEAITQSREAVKSALADGVTRIQVDFLFPELKFMPVAEQFVPLFAEYESRVKVFFADAGAAALARRDWQNVPFKVEDIGTGRAASLQTKIQPEDEIFLFIAPTPVEVPQLEKMCEIIDTRPIVLLNPRLEDSGVVGIGYAARETRRRFISTIESCYYLRPVDDESALFRCYPGQWEVWLESNNEYEKIAELPKRPSGDEIDMILMKGQPAKPSEGTPAKKP | soluble
19 | MAENYQQAAKDIIQLIGMDNIISVTHCQTRLRFILKDHEQVDGKQLEKIDLVKGVFYNGGQYQVILGTGIVTKVYDEIEKLGINVVSKAEQTAI | not soluble
20 | MAEPKKLANGKWQLRFKYKDSITNEWKNKMITRSTKKACRDAETEFKSKIMRGENTEAIKLLDFYDIWVDTFKKNKVSAGRMQKIALTRKNLHDFFGDKQLLKGVTKVKYQQWINWLAKPGNINEKGLAVETVSNRHNIVKSMFLEALDMQYIHSNPTRNIKLTGQVPEKKSNKTISIDDLTKFKEALLSRENTTSKYFILVQLYTGARYQEVAALTWDSIDESNEVIKIKNAYKYDAGQYRIGPTKSEAGVRNIDVPSSLFYYLKKYEMEQKKKILRGDLRNPQNFAFVSKKNSWPISNSSVNKYIKETCELANIERISSHSFRHARSDLLILAEADPIYIKTQLGHKEIIQSYEYASATEANRKKNKEKYENKYKDIL | not soluble
21 | MAFGVSHPVALDLEATSTDPSEAEVLEVAAVDGEGRVFHRYLATQRPLPPDHEVFQLTGIPYEEYEAKKVAPKEALEELLAFLGGRPLLGHNLLRYDLPLLQRHLEEAGLPRWQGEALDTLRLAHLLFPTPPGGLEGYRLGDLYAFLLGRPLEGAHRALNDAQATLAVFHRLLDRGRRALAQHPGLVRAWRELGLPEGHLFPEDEGLIKDLLAREADVEAFFVEKEGRPFPAPTDLGPDLLPKPRPAQRIKEFVQVAHGVAGQGLVGRERPLHEVLERGLRLAVGEAEEGAVEKEG | soluble

From the DeepSol protein solubility set
